Laboratory results from PMC2645338.

Columns and labels:
[1] = biological target: mitochondrial 28S small ribosomal subunit (bovine); test: Microcon-100 centrifugation with dot blot immunodetection
[2] = biological target: C-terminal domain of IF3mt with the linker, His6-tagged (human); test: SPR
[3] = biological target: mitochondrial 28S small ribosomal subunit (bovine); test: co-sedimentation
[4] = biological target: mitochondrial 28S small ribosomal subunit (bovine); test: dot blot of epitope exposure

Substance | Kd [1] | also measured
C-terminal domain of IF3mt with the linker, His6-tagged (domain or fragment) | 60 nM | –
N-terminal domain of IF3mt without the linker, His6-tagged (domain or fragment) | 390 nM | –
mitochondrial 28S small ribosomal subunit (complex) | – | Kd [2]: 44 nM; koff [2]: 0.0092 s⁻¹; kon [2]: 210000 M⁻¹ s⁻¹
untagged IF3mt (mature full-length form, His-tag removed with TEV protease) (from UniProt Q9H2K0 32-278) (natural protein) | 40 nM | –
untagged C-domain of IF3mt with the linker (His-tag removed with TEV protease) (domain or fragment) | 70 nM | –
N-terminal domain of IF3mt with the linker, His6-tagged (domain or fragment) | 240 nM | Kd [3]: 277 nM
mitochondrial initiation factor 3, mature full-length form, His-tagged (from UniProt Q9H2K0 32-278) (natural protein) | – | Kd [3]: 35 nM; quenching of the antigenic response on binding [4]: 80%
C-terminal domain of IF3mt without the linker, His6-tagged (domain or fragment) | 95 nM | –
untagged N-domain of IF3mt with the linker (His-tag removed with TEV protease) (domain or fragment) | 232 nM | –
